Here are results for one substance from publication PMC5750076.

The target in this experiment is mTOR^ΔN-mLST8 complex (human) (UniProt P42345).

Consider “S6K1^367–404 wild type (from UniProt P23443-2 367-404) (peptide)”, for which the KM of S6K1^367–404 phosphorylation by mTOR^ΔN-mLST8 was determined as 430 µM.
